Results from the supplement of paper PMC6757056.
± gives the standard deviation of the averaged measurements.

B1: library; a variant is named by its letters at N, in order (parent)
chain: GCUGUCACCGGUGCUUGGUACGUUAUAUUCAGCCGGUCUGAUGAGUCUNNNNNNAGACGAAACAGC

Columns and labels:
(6R,S)-folinic acid [1] = variants of: B1; test: FACS-Seq fitted mean relative fluorescence mCherry/BFP without ligand (log10 relative fluorescence); HEK293T overexpressing SLC46A1; higher = higher reporter protein expression; conditions: without (6R,S)-folinic acid; ligand present: no
Outline: (§1)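 To measure fluorescence, a normal distribution was fitted to read counts across sorted bins. The reporter libraries were HEK293T cells transduced by lentivirus with mCherry under ribozyme-switch control and an EF1α-BFP marker, enriched and then kept with or without ligand for 48 h. Sorting used 6 mCherry/BFP bins, and bin genomic DNA was PCR-amplified and sequenced on MiSeq. Fitted means of log10(mCherry/BFP) were scaled to five spiked-in control ribozymes.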

(6R,S)-folinic acid [2] = variants of: B1; test: normalized RNA/DNA level without ligand (relative to sTRSVctl = 100) (log10 (% of sTRSVctl)); HEK293T overexpressing SLC46A1; higher = less ribozyme self-cleavage, higher mRNA level; conditions: without (6R,S)-folinic acid; ligand present: no
Procedure: (§2)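 Hammerhead (sTRSV) ribozyme switch libraries with a ligand aptamer grafted on stem I and a randomized N4-6 loop II, cloned into the 3' UTR of mCherry and transiently transfected into HEK293T cells; RNA-Seq 72 h post transfection with ligand added 1 h before transfection; RNA read count / plasmid DNA read count normalized to the non-cleaving sTRSVctl (x100), log10; sequences with >100 DNA reads. FACS-Seq: lentiviral library sorted into 6 bins after 48 h ligand, log-normal fit mean of mCherry/BFP scaled to controls. Printed sequences are partial switch sequences.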

(6R,S)-folinic acid [3] = variants of: B1; test: FACS-Seq fitted mean relative fluorescence mCherry/BFP with ligand (log10 relative fluorescence); HEK293T overexpressing SLC46A1; ligand concentration (+) FACS-Seq: 6 mM; higher = higher reporter protein expression; conditions: with (6R,S)-folinic acid; ligand present: yes
Outline: as §1

(6R,S)-folinic acid [4] = variants of: B1; test: normalized RNA/DNA level with ligand (relative to sTRSVctl = 100) (log10 (% of sTRSVctl)); HEK293T overexpressing SLC46A1; ligand concentration (+) RNA-Seq: 6 mM; higher = less ribozyme self-cleavage, higher mRNA level; conditions: with (6R,S)-folinic acid; ligand present: yes
Procedure: as §2

Variant | FACS-Seq fitted mean (log10) ((6R,S)-folinic acid [1]) | normalized RNA/DNA level without ligand (log10) ((6R,S)-folinic acid [2]) | FACS-Seq fitted mean (log10) ((6R,S)-folinic acid [3]) | normalized RNA/DNA level with ligand (log10) ((6R,S)-folinic acid [4])
UCCAGG | 0.587 ± 0.23 | 1.976 ± 0.011 | 0.559 ± 0.28 | 2.01 ± 0.056
UCCAGA | -0.0235 ± 0.25 | 2.01 ± 0.0079 | 0.123 ± 0.14 | 2 ± 0.029
ACCUAU | 0.349 ± 0.089 | 2.019 ± 0.018 | 0.644 ± 0.022 | 2.05 ± 0.033
ACCUAG | 0.3338 ± 0.0029 | 1.956 ± 0.0051 | 0.37 ± 0.31 | 2.02 ± 0.03
ACCGUU | 0.123 ± 0.046 | 2.008 ± 0.016 | -0.259 ± 0.15 | 2.01 ± 0.038
UCGAAG | -0.0439 ± 0.018 | 1.74 ± 0.041 | -0.0157 ± 0.066 | 1.991 ± 0.0057
UCGAAU | 0.347 ± 0.072 | 1.932 ± 0.013 | 0.308 ± 0.13 | 2 ± 0.044
GCCAAA | 0.458 ± 0.071 | 2.02 ± 0.017 | 0.495 ± 0.12 | 2.029 ± 0.0061
ACAGUG | 0.32076 ± 2.8e-05 | 1.732 ± 0.0061 | 0.629 ± 0.16 | 2 ± 0.028
UCGCAU | 0.644 ± 0.045 | 1.97 ± 0.018 | 0.661 ± 0.25 | 2 ± 0.042
ACGAUC | 0.555 ± 0.16 | 2.062 ± 0.0089 | 0.363 ± 0.0082 | 2.038 ± 0.0079
ACAUCC | 0.096 ± 0.15 | 2.08 ± 0.018 | 0.0523 ± 0.006 | 2.03 ± 0.025
ACAUCA | 0.659 ± 0.066 | 2.055 ± 0.0034 | 0.448 ± 0.075 | 2.05 ± 0.035
UCCUUG | 0.0329 ± 0.028 | 1.85 ± 0.021 | 0.189 ± 0.026 | 1.99 ± 0.033
GCAUUA | 0.539 ± 0.07 | 1.995 ± 0.011 | 0.484 ± 0.1 | 2.03 ± 0.028
GCCGAG | 0.418 ± 0.066 | 1.968 ± 0.005 | 0.538 ± 0.22 | 2.016 ± 0.02
GCCGAA | 0.247 ± 0.078 | 2.011 ± 0.0054 | 0.486 ± 0.16 | 2.05 ± 0.022
ACAUAA | -0.288 ± 0.045 | 1.9664 ± 0.00019 | -0.603 ± 0.1 | 1.996 ± 0.019
ACAUAC | 0.125 ± 0.085 | 1.992 ± 0.0001 | 0.387 ± 0.078 | 1.99 ± 0.021
UCGAGU | 0.379 ± 0.014 | 1.966 ± 0.014 | 0.483 ± 0.24 | 2.0199 ± 0.0014
ACGCCU | -0.804 ± 0.062 | 2.07 ± 0.011 | -1.68 ± 0.58 | 2.06 ± 0.046
ACCCGA | 0.249 ± 0.044 | 2.017 ± 0.016 | 0.537 ± 0.076 | 2.03 ± 0.044
UCCGUG | 0.0926 ± 0.016 | 1.78 ± 0.029 | 0.562 ± 0.067 | 1.98 ± 0.043
GCGAAC | 0.252 ± 0.064 | 1.951 ± 0.002 | 0.261 ± 0.15 | 2.04 ± 0.027

Variant | FACS-Seq fitted mean (log10) ((6R,S)-folinic acid [1]) | normalized RNA/DNA level without ligand (log10) ((6R,S)-folinic acid [2]) | FACS-Seq fitted mean (log10) ((6R,S)-folinic acid [3]) | normalized RNA/DNA level with ligand (log10) ((6R,S)-folinic acid [4])
GCGAAA | 0.397 ± 0.13 | 1.977 ± 0.0092 | 0.39 ± 0.054 | 2.019 ± 0.017
GCGAAU | 0.583 ± 0.062 | 2.014 ± 0.0084 | 0.3524 ± 0.00074 | 2.047 ± 0.016
GCGAAG | 0.477 ± 0.0095 | 1.947 ± 0.0035 | 0.576 ± 0.049 | 2.05 ± 0.0089
CCGAAG | -0.309 ± 0.021 | 1.869 ± 0.0079 | -0.882 ± 0.26 | 2 ± 0.039
GCGCAC | 0.472 ± 0.12 | 1.99 ± 0.007 | 0.311 ± 0.17 | 2.01 ± 0.04
CCAUGU | 0.369 ± 0.014 | 2.035 ± 0.018 | 0.222 ± 0.16 | 2.03 ± 0.04
UCAGUC | 0.427 ± 0.2 | 2.083 ± 0.016 | 0.298 ± 0.2 | 2.013 ± 0.015
CCGAGC | 0.201 ± 0.25 | 2.049 ± 0.0044 | 0.357 ± 0.22 | 2.01 ± 0.03
UCCGGG | 0.446 ± 0.031 | 2.02 ± 0.026 | 0.62 ± 0.13 | 2.05 ± 0.031
UCAUAA | 0.276 ± 0.048 | 1.935 ± 0.014 | 0.514 ± 0.034 | 1.96 ± 0.03
GCGAUG | 0.371 ± 0.13 | 1.959 ± 0.008 | 0.407 ± 0.055 | 2.02 ± 0.043
CCCUUC | 0.28 ± 0.13 | 2.141 ± 0.0043 | 0.0122 ± 0.3 | 2.05 ± 0.035
GCAGUA | 0.218 ± 0.051 | 1.98 ± 0.022 | 0.482 ± 0.12 | 2.02 ± 0.038
GCCUUA | 0.12 ± 0.15 | 1.98 ± 0.027 | -0.0974 ± 0.14 | 1.99 ± 0.037
ACCAAA | 0.632 ± 0.15 | 2.018 ± 0.012 | 0.52 ± 0.14 | 2.017 ± 0.011
UCGAUG | 0.26 ± 0.021 | 1.797 ± 0.015 | 0.486 ± 0.017 | 1.97 ± 0.039
UCGAUA | 0.597 ± 0.085 | 1.987 ± 0.0049 | 0.69 ± 0.34 | 2.02 ± 0.026
CCCGGU | 0.139 ± 0.18 | 2.023 ± 0.0033 | 0.0649 ± 0.052 | 2.02 ± 0.029
GCAUAU | -0.109 ± 0.058 | 1.97 ± 0.029 | -0.0866 ± 0.33 | 2 ± 0.045
GCAUAG | 0.335 ± 0.0092 | 1.966 ± 0.017 | 0.466 ± 0.13 | 2.02 ± 0.053
GCAUAA | 0.2764 ± 0.00097 | 1.968 ± 0.011 | 0.171 ± 0.029 | 2 ± 0.027
ACGACG | 0.261 ± 0.092 | 1.93 ± 0.021 | 0.213 ± 0.08 | 2.0313 ± 0.0019
ACGACC | 0.728 ± 0.055 | 2.066 ± 0.015 | 0.641 ± 0.33 | 2.083 ± 0.02
ACGACA | -0.43 ± 0.011 | 2.015 ± 0.0095 | -0.351 ± 0.72 | 2.045 ± 0.019

Variant | FACS-Seq fitted mean (log10) ((6R,S)-folinic acid [1]) | normalized RNA/DNA level without ligand (log10) ((6R,S)-folinic acid [2]) | FACS-Seq fitted mean (log10) ((6R,S)-folinic acid [3]) | normalized RNA/DNA level with ligand (log10) ((6R,S)-folinic acid [4])
ACGAAA | 0.141 ± 0.013 | 1.956 ± 0.0063 | -0.0169 ± 0.14 | 2 ± 0.04
ACGAAG | 0.365 ± 0.028 | 1.834 ± 0.0094 | 0.953 ± 0.2 | 1.993 ± 0.017
UCCACG | 0.0965 ± 0.072 | 1.921 ± 0.0076 | 0.23 ± 0.091 | 2.01 ± 0.05
CCCCUG | 0.237 ± 0.046 | 2.063 ± 0.0031 | 0.0558 ± 0.16 | 2.053 ± 0.0049
CCCCUA | 0.532 ± 0.01 | 2.052 ± 0.0066 | 0.388 ± 0.34 | 2.06 ± 0.034
GCCAGG | 0.43 ± 0.14 | 1.982 ± 0.0037 | 0.666 ± 0.18 | 2.002 ± 0.015
GCCAGC | 0.269 ± 0.003 | 2.0142 ± 0.00072 | 0.102 ± 0.14 | 2.02 ± 0.038
GCCAGA | 0.385 ± 0.028 | 2.019 ± 0.017 | 0.278 ± 0.36 | 2.03 ± 0.021
GCCAUG | 0.2783 ± 0.0012 | 1.982 ± 0.019 | 0.209 ± 0.15 | 2.01 ± 0.026
CCCCGA | -0.3459 ± 0.0019 | 2.028 ± 0.0046 | -0.64 ± 0.16 | 2.02 ± 0.038
UCCAAG | 0.322 ± 0.11 | 1.815 ± 0.0067 | 0.489 ± 0.12 | 1.992 ± 0.006
CCAGUG | 0.445 ± 0.16 | 2.029 ± 0.0086 | 0.251 ± 0.16 | 2.022 ± 0.0066
UCAUUG | 0.0972 ± 0.14 | 1.876 ± 0.0017 | 0.304 ± 0.23 | 2 ± 0.05
GCGAGC | 0.231 ± 0.076 | 2.014 ± 0.01 | 0.217 ± 0.14 | 2.036 ± 0.014
GCGAGA | 0.0695 ± 0.067 | 1.996 ± 0.016 | 0.197 ± 0.13 | 2.03 ± 0.018
CCCUCA | 0.596 ± 0.099 | 2.0625 ± 0.0014 | 0.512 ± 0.32 | 2.04 ± 0.038
UCCGCG | 0.277 ± 0.014 | 1.842 ± 0.0081 | 0.502 ± 0.16 | 1.96 ± 0.041
UCAUGC | 0.558 ± 0.075 | 2.038 ± 0.01 | 0.485 ± 0.15 | 2.04 ± 0.031
ACAUGG | 0.326 ± 0.041 | 1.916 ± 0.0031 | 0.203 ± 0.12 | 2.04 ± 0.046
UCCGAG | -0.0266 ± 0.13 | 1.809 ± 0.011 | 0.131 ± 0.18 | 1.9932 ± 0.0011
UCGACU | 0.225 ± 0.028 | 2.011 ± 0.0057 | 0.701 ± 0.28 | 2.01 ± 0.022
ACCGAG | 0.326 ± 0.018 | 1.893 ± 0.018 | 0.47 ± 0.072 | 2.01 ± 0.024
ACCGAA | 0.0903 ± 0.11 | 2.013 ± 0.0085 | -0.117 ± 0.18 | 2.03 ± 0.043
GCAUGA | 0.25 ± 0.038 | 2.0186 ± 0.00041 | 0.168 ± 0.097 | 2.081 ± 0.01
